Laboratory results reported in publication PMC3601782.

Target: Sox2 (UniProt P48431)
Assay: co-IP Flag-Oct4 variants, endogenous Sox2
Settings: reference: Flag-Oct4 wild type; sites T235

With “Oct4 (from UniProt Q01860) Flag-Oct4-T235A” as the substance, how does the “binding against the reference” value read?
The value was “weaker”.
